# Assay results as given in the supplement of paper PMC12042874.
# ± gives the uncertainty stated by the source.
# Assay: amyloid nucleation score (Sup35N fusion, yeast selection) (log enrichment); library NNK1; higher = more nucleation; inactive = no reads after selection
# How it was run: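 On medium lacking adenine and uracil, psi-negative yeast expressing peptides of 20 random codons fused to Sup35N were grown 7 days at 30°C after a 24-hour induction with 100 μM copper sulfate. Illumina sequencing of input and output plasmid inserts gave the reads, and sequences under 100 input reads were excluded. The nucleation score is the DiMSum log enrichment of output over input reads, centred on the mode score of non-aggregating sequences.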
row,Substance,amyloid nucleation score
1,LSSYSTYPCSLTGVRKLNCR,-0.205 ± 0.56
2,LSTKRYDLHSTPRRPISPSR,1.08 ± 0.41
3,LSTTKAIALSYLYGQNVKWS,0.092 ± 0.21
4,LSVGLKVDDEDQRLTYFVTI,-0.614 ± 0.62
5,LSWIR,-0.09 ± 0.66
6,LSWSILDGFGGMRCCNINAL,7.155 ± 0.058
7,LSWVMRYLPYVVFLSYDQPG,-0.723 ± 0.62
8,LSYLLWGETRIRYWVPASLM,-0.32 ± 0.61
9,LTEDLNMPSWCKP,0.087 ± 0.7
10,LTGGLMV,-0.06 ± 0.34
11,LTMPMKHLRGSPDLRVNGII,-0.502 ± 0.85
12,LTNNVYSYVWILSSARISIV,0.87 ± 0.22
13,LTQWPGEGKV,-0.303 ± 0.8
14,LTRLSNCVLGGSC,-0.512 ± 0.71
15,LVCVFAWLFP,7.41 ± 0.075
16,LVILVVFGKRY,-0.139 ± 0.41
17,LVKNHYHFMANLGCP,0.133 ± 1.4
18,LVKYKKV,-0.088 ± 0.43
19,LVLMWLLSGYGAHHFYYAK,0 ± 1.2
20,LVMYDSL,0.489 ± 0.58
21,LVRDHRYFEFLASV,0.381 ± 0.39
22,LVRFSSVLCMQHQREV,0.844 ± 0.55
23,LVRKKVCTI,0.543 ± 0.36
24,LVRLTCDMNNFKCQLMFQIF,1.17 ± 0.38

row,Substance,amyloid nucleation score
1,LVSMYA,-0.859 ± 0.73
2,LVSTYGEIQKLHGYLLGMLG,0.002 ± 0.42
3,LVSVCLGCEVCIFVVYIPNP,inactive
4,LVTCLLHAG,-1.38 ± 0.58
5,LVTFRGGYNVDVIMWNNVRR,3.69 ± 0.063
6,LVVKQLLNSAGCTRPCTVRC,0.164 ± 0.55
7,LWGLVRSFFDIDNLKGFRTE,-0.257 ± 1.9
8,LWLAFIIES,0.338 ± 0.25
9,LWLAVSSVNCHSRHLLVWVT,inactive
10,LWLHGGARNVDMCKVIFYFG,6.94 ± 0.088
11,LWLNLILCFQWDPQRKC,4.09 ± 0.11
12,LWSVCLVTSVQKDAGVLPSG,0.85 ± 0.62
13,LWYTALINTNACCVIRQDFR,1.04 ± 0.8
14,LYEDLWFRVREL,1.11 ± 0.63
15,LYEFRGGTHVGSDFSDVVFV,1.05 ± 0.47
16,LYFSTYVFLASTSGHLSRFD,-1.36 ± 2.1
17,LYGSNVVLSVRCGMHTTHCY,2.81 ± 0.24
18,LYGYCFMLVSRESFLVRSGW,-0.272 ± 0.52
19,LYIAH,-0.722 ± 0.42
20,LYKEMTWRNWALSLKMSLRR,0.146 ± 0.5
21,LYLAQFQGNGDLFSVPPCKV,0.16 ± 0.64
22,LYLHNHGVWAYFKWCWGVRG,-0.257 ± 0.53
23,LYLHSWAYVHKNTLNYL,-0.14 ± 0.5
24,LYNIVCLSDIL,5.88 ± 0.061

row,Substance,amyloid nucleation score
1,LYRSGSPRTGWKLMSSSARR,7.525 ± 0.07
2,LYRSGSVMSSATHYRGAHLC,-0.556 ± 0.77
3,LYRYEYDCNSLSMS,2.73 ± 0.078
4,LYSKGIPMACAQVVVYLNER,6.49 ± 0.055
5,LYSNVRRFVWRGTWMWSRRC,0.969 ± 0.61
6,LYTYALARCIFISFMDCRMN,0.371 ± 0.26
7,LYVEMEYSFDYYATKDRHQT,-0.842 ± 1.7
8,LYVTVGWSLWYGSFAVMVVC,0.026 ± 0.41
9,LYVYTYYVMVLVGQKR,-0.698 ± 0.93
10,LYWFAAWLATYIYAW,0.109 ± 0.48
11,MAACMYSCSMSAVEPLHTYS,0.039 ± 0.67
12,MACKIIYVTVEGMLRSRS,1.31 ± 0.56
13,MAEINYWTFSLVLELSARCV,-1.07 ± 1.2
14,MAGLL,-0.546 ± 1.1
15,MAKTFRLGGLDCHLNYVVWC,0.113 ± 0.61
16,MALFSCCCKVYKMG,4.59 ± 0.1
17,MAPRFIDVMQ,-0.94 ± 0.97
18,MASLDGFLFNCWLRRLGFRA,-0.397 ± 0.4
19,MCDGTFCGSSSGHCSASLRH,0.728 ± 0.35
20,MCFSVG,-0.148 ± 0.4
21,MCKVHIIEHCSLYWRSCGIW,inactive
22,MCMSRP,-1.05 ± 0.9
23,MDACCMFNVWLVSECGFRVH,5.81 ± 0.064
